Square brackets hold non-standard residues; d marks the D form. Ends that are not written are not given here. Tyr(3-NO2) = N[C@@H](Cc1ccc(O)c([N+](=O)[O-])c1)C(=O)O; Nle = CCCC[C@H](N)C(=O)O; 2Abz = Nc1ccccc1C(=O)O
What was measured:
Type in all cases: biochemical
[1] = target: Kallikrein-3 (Homo sapiens, UniProt P07288); assay: FRET peptide cleavage efficiency with Kallikrein-3; settings: peptide 200 uM, Kallikrein-3 2 μg/ml, 37° C., pH 8
[2] = target: T1, matriptase (Homo sapiens, UniProt Q9Y5Y6); assay: FRET peptide cleavage efficiency with matriptase
T1 construct: purchased R&D Systems 3946-SEB
T1 sequence (Q9Y5Y6 615-855 limits assumed): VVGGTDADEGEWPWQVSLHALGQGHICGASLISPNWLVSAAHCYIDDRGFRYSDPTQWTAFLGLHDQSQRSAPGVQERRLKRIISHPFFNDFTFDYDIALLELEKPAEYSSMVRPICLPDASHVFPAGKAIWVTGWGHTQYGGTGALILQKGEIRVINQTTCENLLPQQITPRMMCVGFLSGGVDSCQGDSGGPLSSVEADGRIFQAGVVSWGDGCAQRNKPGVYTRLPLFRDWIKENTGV

[3] = target: T2, MMP-2 (Homo sapiens, UniProt P08253); assay: FRET peptide cleavage efficiency with MMP-2
T2 construct: purchased SIGMA PF023
T2 sequence (P08253 110-660): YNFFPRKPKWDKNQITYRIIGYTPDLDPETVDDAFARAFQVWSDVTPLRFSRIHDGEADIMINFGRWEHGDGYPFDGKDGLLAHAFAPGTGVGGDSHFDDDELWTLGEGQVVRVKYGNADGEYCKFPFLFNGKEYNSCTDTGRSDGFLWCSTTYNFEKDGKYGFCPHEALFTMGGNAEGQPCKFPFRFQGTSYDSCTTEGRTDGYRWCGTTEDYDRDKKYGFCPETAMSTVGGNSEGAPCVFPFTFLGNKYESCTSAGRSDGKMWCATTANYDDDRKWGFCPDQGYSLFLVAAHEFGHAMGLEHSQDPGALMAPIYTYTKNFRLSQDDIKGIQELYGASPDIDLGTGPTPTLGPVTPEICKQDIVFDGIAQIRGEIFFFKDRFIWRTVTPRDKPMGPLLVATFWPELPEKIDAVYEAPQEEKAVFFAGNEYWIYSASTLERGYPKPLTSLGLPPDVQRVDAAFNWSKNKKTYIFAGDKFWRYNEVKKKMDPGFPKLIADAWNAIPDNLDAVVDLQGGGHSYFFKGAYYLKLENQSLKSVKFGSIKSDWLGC

[4] = target: uPA (Homo sapiens, UniProt P00749); assay: FRET peptide cleavage efficiency with uPA
[5] = target: T3, MMP-7 (Homo sapiens, UniProt P09237); assay: FRET peptide cleavage efficiency with MMP-7 (standard pH 7.5; also pH 6.5)
T3 construct: purchased SIGMA CC1059
T3 sequence (P09237 95-267): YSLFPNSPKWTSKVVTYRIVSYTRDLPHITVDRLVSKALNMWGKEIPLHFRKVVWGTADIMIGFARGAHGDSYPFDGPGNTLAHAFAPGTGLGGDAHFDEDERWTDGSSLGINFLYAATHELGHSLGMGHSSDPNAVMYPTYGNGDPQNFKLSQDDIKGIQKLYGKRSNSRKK

[6] = target: T4, MMP-9 (Homo sapiens, UniProt P14780); assay: FRET peptide cleavage efficiency with MMP-9 (standard pH 7.5; also pH 6.5)
T4 construct: purchased SIGMA PF024
T4 sequence (P14780 94-707): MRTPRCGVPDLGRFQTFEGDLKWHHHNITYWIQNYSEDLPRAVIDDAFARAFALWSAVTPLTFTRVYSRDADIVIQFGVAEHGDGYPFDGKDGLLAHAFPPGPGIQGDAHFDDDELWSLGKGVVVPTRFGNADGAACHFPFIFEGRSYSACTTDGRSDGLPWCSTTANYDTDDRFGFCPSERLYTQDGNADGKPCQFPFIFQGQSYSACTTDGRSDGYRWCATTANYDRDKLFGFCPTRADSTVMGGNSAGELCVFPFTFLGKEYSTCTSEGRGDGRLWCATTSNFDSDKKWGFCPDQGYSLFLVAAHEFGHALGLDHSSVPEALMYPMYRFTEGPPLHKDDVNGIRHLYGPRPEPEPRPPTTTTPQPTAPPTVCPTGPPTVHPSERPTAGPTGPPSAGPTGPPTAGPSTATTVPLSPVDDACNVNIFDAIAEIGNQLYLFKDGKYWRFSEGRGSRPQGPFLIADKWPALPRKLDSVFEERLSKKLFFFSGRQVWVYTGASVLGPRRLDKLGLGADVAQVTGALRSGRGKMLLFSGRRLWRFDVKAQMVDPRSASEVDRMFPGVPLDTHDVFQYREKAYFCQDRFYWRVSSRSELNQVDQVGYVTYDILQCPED

[7] = 200 uM linker, 1 ug/ml protease, 37° C., buffer B pH 9.0
[8] = t = 15 min, 200 uM linker, 1 ug/ml protease, 37° C., buffer C pH 7.5
[9] = t = 60 min, 200 uM linker, 1 ug/ml protease, 37° C., buffer C pH 7.5
[10] = t = 120 min, 200 uM linker, 1 ug/ml protease, 37° C., buffer C pH 7.5
[11] = t = 15 min, 200 uM linker, 1 ug/ml protease, 37° C., buffer A pH 8.5
[12] = 200 uM linker, 1 ug/ml protease, 37° C., buffer A pH 8.5
[13] = t = 15 min, standard conditions (Table 8)
[14] = t = 60 min, standard conditions (Table 8)
[15] = t = 120 min, standard conditions (Table 8)

Sequence of Kallikrein-3 (P07288 25-261, species assumed): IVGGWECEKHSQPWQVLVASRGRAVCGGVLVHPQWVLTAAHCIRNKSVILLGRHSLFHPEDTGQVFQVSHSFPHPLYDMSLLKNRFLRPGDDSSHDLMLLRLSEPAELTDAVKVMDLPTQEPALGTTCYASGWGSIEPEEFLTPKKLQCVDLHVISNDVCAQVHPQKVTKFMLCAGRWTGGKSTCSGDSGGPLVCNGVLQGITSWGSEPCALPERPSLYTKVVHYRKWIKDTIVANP

## RRLHYSL ([2Abz]RRLHYSL[Tyr(3-NO2)]-NH2) [LNK073]
[1]
  Kallikrein-3 t = 1 h % cleavage: 20%
  Kallikrein-3 t = 3 h % cleavage: 51%
  Kallikrein-3 t = 6 h % cleavage: 79%
  Kallikrein-3 t = 8 h % cleavage: 91%
[2]; [7]
  % cleavage Matriptase t = 15 min: 1%
  % cleavage Matriptase t = 60 min: 3%
  % cleavage Matriptase t = 120 min: 5%
[3]; [8]
  % cleavage MMP-2 t = 15 min: 1%
[3]; [9]
  % cleavage MMP-2 t = 60 min: 4%
[3]; [10]
  % cleavage MMP-2 t = 120 min: 6%
[4]; [11]
  % cleavage uPA t = 15 min: 0%
[4]; [12]
  % cleavage uPA t = 60 min: 0%
  % cleavage uPA t = 120 min: 0%

## SSLQSSPG ([2Abz]SSLQSSPG[Tyr(3-NO2)]-NH2) [LNK066]
[1]
  Kallikrein-3 t = 1 h % cleavage: 14%
  Kallikrein-3 t = 3 h % cleavage: 40%
  Kallikrein-3 t = 6 h % cleavage: 67%
  Kallikrein-3 t = 8 h % cleavage: 78%
[2]; [7]
  % cleavage Matriptase t = 15 min: 0%
  % cleavage Matriptase t = 60 min: 0%
  % cleavage Matriptase t = 120 min: 0%
[3]; [8]
  % cleavage MMP-2 t = 15 min: 1%
[3]; [9]
  % cleavage MMP-2 t = 60 min: 5%
[3]; [10]
  % cleavage MMP-2 t = 120 min: 9%

## SSLYSSPG ([2Abz]SSLYSSPG[Tyr(3-NO2)]-NH2) [LNK065]
[1]
  Kallikrein-3 t = 1 h % cleavage: 32%
  Kallikrein-3 t = 3 h % cleavage: 68%
  Kallikrein-3 t = 6 h % cleavage: 93%
  Kallikrein-3 t = 8 h % cleavage: 100%
[2]; [7]
  % cleavage Matriptase t = 15 min: 0%
  % cleavage Matriptase t = 60 min: 0%
  % cleavage Matriptase t = 120 min: 0%
[3]; [8]
  % cleavage MMP-2 t = 15 min: 3%
[3]; [9]
  % cleavage MMP-2 t = 60 min: 12%
[3]; [10]
  % cleavage MMP-2 t = 120 min: 21%

## SS-Nle-YSSAG ([2Abz]SS[Nle]YSSAG[Tyr(3-NO2)]-NH2) [LNK081]
[1]
  Kallikrein-3 t = 1 h % cleavage: 27%
  Kallikrein-3 t = 3 h % cleavage: 62%
  Kallikrein-3 t = 6 h % cleavage: 87%
  Kallikrein-3 t = 8 h % cleavage: 94%
[2]; [7]
  % cleavage Matriptase t = 15 min: 0%
  % cleavage Matriptase t = 60 min: 0%
  % cleavage Matriptase t = 120 min: 0%
[3]; [8]
  % cleavage MMP-2 t = 15 min: 3%
[3]; [9]
  % cleavage MMP-2 t = 60 min: 11%
[3]; [10]
  % cleavage MMP-2 t = 120 min: 19%
[4]; [11]
  % cleavage uPA t = 15 min: 0%
[4]; [12]
  % cleavage uPA t = 60 min: 0%
  % cleavage uPA t = 120 min: 0%

## SSQYSSPG ([2Abz]SSQYSSPG[Tyr(3-NO2)]-NH2) [LNK069]
[1]
  Kallikrein-3 t = 1 h % cleavage: 6%
  Kallikrein-3 t = 3 h % cleavage: 16%
  Kallikrein-3 t = 6 h % cleavage: 31%
  Kallikrein-3 t = 8 h % cleavage: 40%
[2]; [7]
  % cleavage Matriptase t = 15 min: 0%
  % cleavage Matriptase t = 60 min: 0%
  % cleavage Matriptase t = 120 min: 0%
[3]; [8]
  % cleavage MMP-2 t = 15 min: 1%
[3]; [9]
  % cleavage MMP-2 t = 60 min: 6%
[3]; [10]
  % cleavage MMP-2 t = 120 min: 13%
[4]; [11]
  % cleavage uPA t = 15 min: 0%
[4]; [12]
  % cleavage uPA t = 60 min: 0%
  % cleavage uPA t = 120 min: 0%

## GSSYYSGA ([2Abz]GSSYYSGA[Tyr(3-NO2)]-NH2) [LNK079]
[1]
  Kallikrein-3 t = 1 h % cleavage: 34%
  Kallikrein-3 t = 3 h % cleavage: 75%
  Kallikrein-3 t = 6 h % cleavage: 99%
  Kallikrein-3 t = 8 h % cleavage: 100%
[2]; [7]
  % cleavage Matriptase t = 15 min: 0%
  % cleavage Matriptase t = 60 min: 0%
  % cleavage Matriptase t = 120 min: 0%
[3]; [8]
  % cleavage MMP-2 t = 15 min: 10%
[3]; [9]
  % cleavage MMP-2 t = 60 min: 42%
[3]; [10]
  % cleavage MMP-2 t = 120 min: 70%
[4]; [11]
  % cleavage uPA t = 15 min: 0%
[4]; [12]
  % cleavage uPA t = 60 min: 0%
  % cleavage uPA t = 120 min: 0%

## RGRKSPQPLVD ([2Abz]RGRKSPQPLVD[Tyr(3-NO2)]-NH2) [LNK040]
[2]; standard conditions (Table 8)
  % cleavage Matriptase t = 15 min: 100%
  % cleavage Matriptase t = 60 min: 100%
  % cleavage Matriptase t = 120 min: 100%
[5]; t = 15 min (Table 9)
  % cleavage MMP-7 t = 15 min: 29%
[5]; [13]
  % cleavage MMP-7 t = 15 min: 29%
[5]; t = 60 min (Table 9)
  % cleavage MMP-7 t = 60 min: 74%
[5]; [14]
  % cleavage MMP-7 t = 60 min: 74%
[5]; t = 120 min (Table 9)
  % cleavage MMP-7 t = 120 min: 93%
[5]; [15]
  % cleavage MMP-7 t = 120 min: 93%
[3]; t = 15 min (Table 9)
  % cleavage MMP-2 t = 15 min: 8%
[3]; t = 60 min (Table 9)
  % cleavage MMP-2 t = 60 min: 28%
[3]; [14]
  % cleavage MMP-2 t = 60 min: 28%
[3]; t = 120 min (Table 9)
  % cleavage MMP-2 t = 120 min: 47%
[3]; [15]
  % cleavage MMP-2 t = 120 min: 47%
[6]; t = 15 min (Table 9)
  % cleavage MMP-9 t = 15 min: 25%
[6]; [13]
  % cleavage MMP-9 t = 15 min: 25%
[6]; t = 60 min (Table 9)
  % cleavage MMP-9 t = 60 min: 69%
[6]; [14]
  % cleavage MMP-9 t = 60 min: 69%
[6]; t = 120 min (Table 9)
  % cleavage MMP-9 t = 120 min: 89%
[6]; [15]
  % cleavage MMP-9 t = 120 min: 89%
[4]; [13]
  % vcleavage uPA t = 15 min: 0%
[4]; standard conditions (Table 8)
  % cleavage uPA t = 60 min: 0%
  % cleavage uPA t = 120 min: 0%
